Laboratory results reported in patent US20170340735A1 (published 2017).
Numbering of substitutions follows the chain as printed.

T1: recombinant monomeric human TIGIT-His (human, UniProt Q495A1 22-141)
T1 construct: also called hTIGIT; not shown: His tag
T1 sequence: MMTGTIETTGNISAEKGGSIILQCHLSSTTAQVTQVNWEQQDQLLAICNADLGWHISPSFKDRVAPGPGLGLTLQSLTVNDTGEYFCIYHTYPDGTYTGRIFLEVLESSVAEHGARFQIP

T2: human PVRL4-His (human, UniProt Q96NY8 32-349)
T2 construct: also called Nectin-4; not shown: His tag
T2 sequence (looked up): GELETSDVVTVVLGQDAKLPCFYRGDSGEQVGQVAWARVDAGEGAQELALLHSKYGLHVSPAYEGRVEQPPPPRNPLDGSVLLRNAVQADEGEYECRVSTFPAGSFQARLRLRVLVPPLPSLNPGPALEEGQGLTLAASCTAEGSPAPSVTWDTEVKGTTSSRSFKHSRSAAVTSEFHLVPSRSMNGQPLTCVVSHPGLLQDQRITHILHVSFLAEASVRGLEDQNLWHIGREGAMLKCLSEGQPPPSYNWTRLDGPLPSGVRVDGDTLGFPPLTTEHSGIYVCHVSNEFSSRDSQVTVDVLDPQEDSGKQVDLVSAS

T3: human TIGIT on the cell surface (human, UniProt Q495A1 22-244)
T3 construct: Expressed on engineered Jurkat cells or naturally on human primary CD8+ T cells (the cells are named under assay); also called Human TIGIT Jurkat; human TIGIT expressing Jurkat cells
T3 sequence: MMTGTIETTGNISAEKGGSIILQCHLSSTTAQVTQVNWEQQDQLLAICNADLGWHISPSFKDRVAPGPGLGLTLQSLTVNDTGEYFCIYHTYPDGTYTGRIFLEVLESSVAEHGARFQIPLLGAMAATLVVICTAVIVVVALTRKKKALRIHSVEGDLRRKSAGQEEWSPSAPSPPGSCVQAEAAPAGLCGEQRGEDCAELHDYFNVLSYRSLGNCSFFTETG

B1: MAB1-IgG4 (antibody, V domains shown)
VH: QLQLQESGPGLVKPSETLSLTCTVSGGSITSSSYYWGWIRQPPGKGLEWIGSIYYSGATFYNPSLKSRVTISVDTSKNQFSLKLSSVTAADTAVYYCARDANYYGSAWAFDPWGQGTLVTVSS
VL: EIVLTQSPATLSLSPGERATLSCRASQSVSSYLAWYQQKPGQAPRLLIYDASNRATGIPARFSGSGSGTDFTLTISSLEPEDFAVYYCQQHFNLPTFGGGTKVEIKR
B2: MAB5-IgG4 (antibody, V domains shown)
VH: B1 VH with T30S, S32T, Y34H, A58S, S67G
VL: B1 VL
B3: MAB4-IgG4 (antibody, V domains shown)
VH: B1 VH with T30S, S32T, Y34H, A58S, S106G
VL: B1 VL
B4: MAB2-IgG4 (antibody, V domains shown)
VH: B1 VH with T30S, S33K, A58S
VL: B1 VL

The binders below were run against T1, recombinant monomeric human TIGIT-His (assay: BLI (ForteBio), IgG on AHQ sensor, 100 nM monomeric antigen, 1:1 model).
Experimental: (§1) Quantitative binding of antibodies to recombinant monomeric human, mouse (SEQ ID NO: 3), cynomolgus monkey TIGIT was measured using biolayer interferometry (BLI) with a FORTEBIO®. […] FORTEBIO affinity measurements were performed by loading IgGs on-line onto AHQ sensors. Sensors were equilibrated off-line in assay buffer for 30 min and then monitored on-line for 60 seconds for baseline establishment. Sensors with loaded IgGs were exposed to a single concentration of antigen (100 nM) for 3 minutes. Afterwards they were transferred to assay buffer for 3 minutes for off-rate measurement. Kinetics were analyzed using the 1:1 binding model.

Compared with B1, B2 is 2.7-fold lower in Kd: 0.524 nM for the first, 0.196 nM for the second.

First: B3
Second: B4
The Kd of the first is 1.9-fold lower: 0.246 nM for the first, 0.457 nM for the second.

Each binder was assayed against T4, recombinant monomeric cynomolgus monkey TIGIT-His (cynomolgus monkey) in the same assay as above.
T4 construct: also called Cyno TIGIT His; cTIGIT; not shown: His tag
Experimental: as §1

T4 sequence (chain, as listed by the source limits assumed): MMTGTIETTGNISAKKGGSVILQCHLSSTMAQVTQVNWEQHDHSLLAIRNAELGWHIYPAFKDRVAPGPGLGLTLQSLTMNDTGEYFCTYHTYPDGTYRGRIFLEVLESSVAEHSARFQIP

Compared with B1, B2 is 2.9-fold lower in Kd: 2.64 nM for the first, 0.898 nM for the second. The second binds more tightly here.

First: B3
Second: B4
The Kd of the first is 4.3-fold lower: 0.369 nM for the first, 1.57 nM for the second. The first binds more tightly here.

The binders below were run against T2, human PVRL4-His (assay: BLI, antibody on AHC sensor, human PVRL4-His in solution).
Experimental: The BLI analysis was performed at 30° C. using 1× kinetics buffer as assay buffer. AHC sensors were first presoaked in assay buffer for greater than 5 minutes. Antibody (5 μg/mL) was captured on the sensor for 300 seconds. Sensors were then dipped in assay buffer for 120 seconds to establish a baseline before measuring binding to human PVRL4-His protein. Sensors were then dipped into human PVRL4-His (200 nM in assay buffer) for 200 seconds to measure association. Dissociation of PVRL4 was then measured by dipping sensors into assay buffer for 200 seconds. Results were analyzed using Octet® Data Analysis Software Version 8.2.0.7.

B1: no binding (tested: 200 nM).
B2: no binding (tested: 200 nM).
B3: no binding (tested: 200 nM).
B4: no binding (tested: 200 nM).

These binders were tested against T1, recombinant monomeric human TIGIT-His (assay: MSD-SET solution equilibrium titration, monomeric antigen).
Experimental: (§2) See Estep et al., supra, incorporated by reference in its entirety. Briefly, solution equilibrium titrations (SET) were performed in PBS+0.1% IgG-Free BSA (PBSF) with antigen (TIGIT monomer) held constant at 10-100 pM and incubated with 3- to 5-fold serial dilutions of Fab or mAbs starting at 10 pM-10 nM. Antibodies (20 nM in PBS) were coated onto standard bind MSD-ECL plates overnight at 4° C. or at room temperature for 30 min. Plates were then blocked by BSA for 30 min with shaking at 700 rpm, followed by three washes with wash buffer (PBSF+0.05% Tween 20). SET samples were applied and incubated on the plates for 150s with shaking at 700 rpm followed by one wash. Antigen captured on a plate was detected with 250 ng/mL sulfotag-labeled streptavidin in PBSF by incubation on the plate for 3 min. The plates were washed three times with wash buffer and then read on the MSD Sector Imager 2400 instrument using 1× Read Buffer T with surfactant. The percent free antigen was plotted as a function of titrated antibody in Prism and fit to a quadratic equation to extract the KD. To improve throughput, liquid handling robots were used throughout MSD-SET experiments, including SET sample preparation.

Compared with B1, B2 is 11-fold lower in Kd: 0.054 nM for the first, 0.0049 nM for the second. The second binds more tightly here.

First: B3
Second: B4
The Kd of the first is 5-fold lower: 0.005 nM for the first, 0.025 nM for the second.

What follows are binders tested against T4, recombinant monomeric cynomolgus monkey … in the same assay as above.
Experimental: as §2

Compared with B1, B2 is 7-fold lower in Kd: 0.32 nM for the first, 0.046 nM for the second.

First: B3
Second: B4
The Kd of the first is 15-fold lower: 0.015 nM for the first, 0.23 nM for the second.

The binders below were run against T3, human TIGIT on the cell surface (assay: flow cytometry, antibody titrated against labeled PVR-Fc binding to human TIGIT Jurkat cells).
Experimental: (§3) Quantitative ligand blocking studies were conducted by using a cell surface TIGIT binding assay.

B1 and B2 are within 1.5-fold of each other in IC50: 2.2 nM for the first, 1.7 nM for the second.

B3 and B4 are within 1.5-fold of each other in IC50: 1.9 nM for the first, 2.3 nM for the second.

These binders were tested against T3, human TIGIT on the cell surface (assay: flow cytometry, antibody titrated against labeled PVRL2-Fc binding to human TIGIT Jurkat cells).
Experimental: as §3

B1 and B2 are the same in IC50: 1.4 nM for the first, 1.4 nM for the second.

B3 and B4 are within 1.5-fold of each other in IC50: 1.6 nM for the first, 1.3 nM for the second.

These binders were tested against T1, recombinant monomeric human TIGIT-His (assay: BLI (Octet QKe), antibody on AHC sensor, several concentrations of human TIGIT-His, 1:1 global fit, average).
Experimental: A strategy of capturing anti-TIGIT antibodies on sensors following association/dissociation of monomeric TIGIT proteins was used to avoid avidity effects in the assay. The BLI analysis was performed at 29° C. using 1× kinetics buffer (ForteBio) as assay buffer. Anti-human IgG Fc capture (AHC) biosensors (ForteBio) were first presoaked in assay buffer for over five minutes. Anti-TIGIT antibody (5 μg/mL) was captured on the sensor for 300 seconds. Sensors were then dipped in assay buffer for 120 seconds to establish a baseline before measuring binding to each TIGIT protein. […] Dissociation of TIGIT was measured by dipping the sensors into assay buffer for 600, 1200, or 1800 seconds, depending on the experiment (600 seconds was only used for mouse TIGIT-His). Agitation at all steps was 1000 rpm.
Kinetic parameters were generated with Octet® Data Analysis Software Version 8.2.0.7 using reference subtraction, dissociation based inter-step correction, 1-to-1 binding model, and global fit (Rₘₐₓ unlinked by sensor).

First: B2
Second: B3
The Kd of the first is 2.3-fold higher: 0.19 nM for the first, 0.081 nM for the second. The second binds more tightly here.

B4 was tested, and the Kd was 0.71 nM.

Going from B2 to B3, the koff falls from 0.00014 s⁻¹ to 6.3e-05 s⁻¹ (2.2-fold).

Binder B4 has a koff of 0.00023 s⁻¹.

B2 and B3 are within 1.5-fold of each other in kon: 770000 M⁻¹ s⁻¹ for the first, 700000 M⁻¹ s⁻¹ for the second.

For B4, the kon was 320000 M⁻¹ s⁻¹.

The binders below were run against T3, human TIGIT on the cell surface (assay: cell-based or functional assay).

Going from B1 to B2, the “Average EC50, IL-2 production, human TIGIT Jurkat/anti-CD3 HT-1080 co-culture assay” value rises from 0.22 nM to 0.34 nM (1.5-fold).

B3 and B4 are within 1.5-fold of each other in “Average EC50, IL-2 production, human TIGIT Jurkat/anti-CD3 HT-1080 co-culture assay” value: 0.34 nM for the first, 0.31 nM for the second.
